This note sets out measurements from PMC3745449.

The target of assay [1] is His6-tagged N-terminal domain of turkey pancreatic lipase (turkey).
Assay [2] shares this target. This is another data set of the same source.

For Turkey colipase (natural protein), the time for which N-TPL stays active in tributyrin (TC4) hydrolysis (pH-Stat, pH 8.5, 37°C) with colipase; without colipase the activity is lost after 3 min in assay [1] is over 8 min. For the same substance, in assay [2], the increase of N-TPL lipase activity on tributyrin (TC4) when colipase is present in the hydrolysis medium was 15%.
